From patent US20110165066A1 (AbbVie / Abbott, published 2011)
Like-named read-outs stand apart in the source and are kept apart here.

T1: mouse IL-13 (mouse, UniProt P20109 26-131, limits assumed)
T1 construct: also called mIL-13; murine IL-13
T1 sequence (looked up): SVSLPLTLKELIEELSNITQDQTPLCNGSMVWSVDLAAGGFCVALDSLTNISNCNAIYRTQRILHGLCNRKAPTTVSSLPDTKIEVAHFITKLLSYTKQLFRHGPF


Experiments:
human IL-13 wild type [1] = biological target: T2, human IL-13 wild type (human, UniProt P35225 35-146); assay: SPR (Biacore)
T2 construct: also called h IL-13; h IL-13 wt
T2 sequence (P35225 other isoform, or with tags, fused parts or gaps limits assumed): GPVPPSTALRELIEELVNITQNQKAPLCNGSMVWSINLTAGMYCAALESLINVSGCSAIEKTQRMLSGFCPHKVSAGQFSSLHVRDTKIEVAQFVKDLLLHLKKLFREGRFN
Method: (§1) The BIACORE assay (Biacore, Inc, Piscataway, N.J.) determines the affinity of antibodies with kinetic measurements of on-, off-rate constants. […] All chemicals were obtained from Biacore® AB (Uppsala, Sweden) or otherwise from a different source as described in the text. Approximately 5000 RU of goat anti-mouse IgG, (Fcγ), fragment specific polyclonal antibody (Pierce Biotechnology Inc, Rockford, Ill.) diluted in 10 mM sodium acetate (pH 4.5) was directly immobilized across a CM5 research grade biosensor chip using a standard amine coupling kit according to manufacturer's instructions and procedures at 25 μg/ml. Unreacted moieties on the biosensor surface were blocked with ethanolamine. Modified carboxymethyl dextran surface in flowcell 2 and 4 was used as a reaction surface. Unmodified carboxymethyl dextran without goat anti-mouse IgG in flow cell 1 and 3 was used as the reference surface. For kinetic analysis, rate equations derived from the 1:1 Langmuir binding model were fitted simultaneously to association and dissociation phases of all eight injections (using global fit analysis) with the use of Biaevaluation 4.0.1 software. Purified antibodies were diluted in HEPES-buffered saline for capture across goat anti-mouse IgG specific reaction surfaces. Mouse antibodies to be captured as a ligand (25 μg/ml) were injected over reaction matrices at a flow rate of 5 μl/min. The association and dissociation rate constants, kₒₙ (unit M⁻¹s⁻¹) and koff (unit s⁻¹) were determined under a continuous flow rate of 25 μl/min Rate constants were derived by making kinetic binding measurements at ten different antigen concentrations ranging from 10-200 nM. […] Binding is recorded as a function of time and kinetic rate constants are calculated.

human IL-13 wild type [2] = biological target: T2, human IL-13 wild type; assay: cell-based or functional assay
[3] = biological target: T3, human IL-13 variant (R130Q) (human, UniProt P35225 35-146); assay: cell-based or functional assay
T3 sequence (P35225 35-146 limits assumed, stated change not applied): as the sequence (P35225 other isoform, or with tags, fused parts or gaps limits assumed) above, with R110Q counted along it

human IL-13 wild type [4] = biological target: T2, human IL-13 wild type; assay: cell-based or functional assay; remark: listed apart in the source
[5] = biological target: T3, human IL-13 variant (R130Q); assay: cell-based or functional assay; remark: listed apart in the source
cynomolgus IL-13 = cynomolgus IL-13 (cynomolgus, UniProt Q0PW92 21-132); assay: cell-based or functional assay
cynomolgus IL-13, sequence (Q0PW92 entry or part of it): as the sequence (P35225 other isoform, or with tags, fused parts or gaps limits assumed) above, with G1S, R10K, M42V, S67N, H83R, L100V, R110Q counted along it

human IL-13 wild type [6] = biological target: T2, human IL-13 wild type; assay: SPR (Biacore), mAb captured, IL-13 as analyte
Method: as §1

[7] = biological target: T3, human IL-13 variant (R130Q); assay: SPR (Biacore), mAb captured, IL-13 as analyte
Method: as §1

mouse IL-13 = biological target: T1, mouse IL-13; assay: indirect ELISA, captured mAb, biotinylated mouse IL-13
Method: Murine anti-human IL-13 mAbs were prepared at various concentrations ranging from 0.1 to 100 ng/ml in PBS containing 0.1% BSA; 50 ul of each antibody dilution was added to the coated ELISA plate and incubated for 1 hour at room temperature. Wells were washed 3 times with PBS containing 0.05% Tween-20. […] Wells were washed 3 times with PBS containing 0.05% Tween-20. Streptavidin HRP (Pierce #21126, Rockland, Ill.) was diluted 1:20000 in PBS containing 0.1% BSA; […] was added and the plates incubated for 1 hour at room temperature. Plates were washed 3 times with PBS containing 0.05% Tween-20. Fifty microliters of TMB solution (Sigma # T0440, St. Louis, Mo.) was added to each well and incubated for 10 minutes at room temperature. The reaction was stopped by addition of 1N sulphuric acid. Plates were read spectrophotmetrically at a wavelength of 450 nm.

human IL-13 wild type [8] = biological target: T2, human IL-13 wild type; assay: cell-based or functional assay; remark: listed apart in the source

Row | Binder | Kd (human IL-13 wild type [1]) | koff (human IL-13 wild type [1]) | kon (human IL-13 wild type [1]) | Potency (IC50), A-549 bioassay (human IL-13 wild type [2]) | Potency (IC50), A-549 bioassay [3] | Average IC50, IL-13-induced TARC production by A-549 cells (human IL-13 wild type [4]) | Average IC50, IL-13-induced TARC production by A-549 cells [5] | Average IC50, IL-13-induced TARC production by A-549 cells (cynomolgus IL-13) | Kd (human IL-13 wild type [6]) | koff (human IL-13 wild type [6]) | kon (human IL-13 wild type [6]) | Kd [7] | koff [7] | kon [7] | binding result (mouse IL-13) | Average IC50, IL-13-induced TARC production by A-549 cells (human IL-13 wild type [8])
1 | 13C5.1 (antibody, human IgG1, V domains shown, Humanized) VH: EVTLKESGPVLVKPTETLTLTCTFSGFSLSTSDMGVDWIRQPPGKALEWLAHIWWDDVKRYNPALKSRLTISKDTSKSQVVLTMTNMDPVDTATYYCARTVSSGYIYYAMDYWGQGTTVTVSS VL: DIQMTQSPSSLSASVGDRVTITCRASQDIRNYLNWYQRKPGKVVKLLIYYTSKLHSGVPSRFSGSGSGTDFTLTISSLQPEDVATYYCQQGNTLPLTFGGGTKVEIKR | 0.71 nM | 0.000474 s⁻¹ | 668000 M⁻¹ s⁻¹ | 0.868 nM | 0.369 nM |  |  |  |  |  |  |  |  |  |  | 
2 | 13C5.2 (antibody, human IgG1, V domains shown, Humanized) VH: EVTLKESGPVLVKPTETLTLTCTFSGFSLSTSDMGVDWIRQPPGKALEWLAHIWWDDVKRYNPALKSRLTISKDTSKSQVVLTMTNMDPVDTATYYCARTVSSGYIYYAMDYWGQGTTVTVSS VL: DIQMTQTPSSLSASVGDRVTISCRASQDIRNYLNWYQRKPGKVVKLLIFYTSKLHSGVPSRFSGSGSGTDYTLTISSLQPEDVATYFCQQGNTLPLTFGGGTKVEIKR | 0.0979 nM | 0.000123 s⁻¹ | 1.26e+06 M⁻¹ s⁻¹ | 0.193 nM | 0.13 nM |  |  |  |  |  |  |  |  |  |  | 
3 | 21D9 (antibody, V domains shown) VH: QVQLQQSGDDLVKPGASVKLSCKASGYTFTSYWINWIKQRPGQGLEWIGHIAPGSGETYDNEMFKDKAKLTVDTSSNTAYIHLSSLSSEDSAVYFCARGSFTFFYAMDYWGQGTSVTVSS VL: DVLMTQTPLSLPVSLGDQASISCRSSQNIVHSNGKTYLEWYLQRPGQSPKLLIYKVSNRFSGVPDRFSGSGSGTDFTLKISRVEAEDLGVYYCFQGSHVPYTFGGGTKLEIKR |  |  |  |  |  | 0.0682 nM | 0.136 nM | 0.34 nM | 0.0772 nM | 6.58e-05 s⁻¹ | 852000 M⁻¹ s⁻¹ | 0.0744 nM | 6.18e-05 s⁻¹ | 831000 M⁻¹ s⁻¹ | no binding (tested: 0.1 to 100 ng/ml) | 
4 | 13C5-Chim (antibody, human IgG1, V domains shown, also called chimeric 13C5) VH: QVTLKESGPGILQPSQTLSLTCSFSGFSLSTSDMGVDWIRQPSGKGLEWLAHIWWDDVKRYNPALKSRLTISKDTSSSQVFLMLASVDTADTATYYCARTVSSGYIYYAMDYWGQGTSVTVSS VL: DIQMTQTASSLSASLGDRVTISCRASQDIRNYLNWYQRKPDGTVKLLIFYTSKLHSGVPSRFSGSGSGTDYSLTIRNLEQEDIATYFCQQGNTLPLTFGGGTKLEIKR | 0.0568 nM | 9.65e-05 s⁻¹ | 1.7e+06 M⁻¹ s⁻¹ | 0.107 nM | 0.037 nM |  |  |  |  |  |  |  |  |  |  | 0.191 nM
5 | 5G1-Chim (antibody, V domains shown, also called chimeric 5G1) VH: QVQLQQSGAELARPGTSVKLSCKASGYTFTTYGVSWVKQRTGQGLEWIGEIYPGNYNTYYNEKFRGKATLTADKSSSTAYMQLSSLTSEDSAVYFCSRWRTSYFSDYGYFDYWGQGTTLTVSS VL: DVVMTQTPLSLPVSLGDQASISCRSSQSLVHSHGNTYLHWYLQKPGQSPKLLIYTVSNRFSGVPDRFSGSGSGTDFTLKISRVEAEDLGVYFCSQSTHVPYTFGGGTKLEIKR | 0.0417 nM | 3.82e-05 s⁻¹ | 915000 M⁻¹ s⁻¹ | 0.0769 nM | 0.0692 nM |  |  |  |  |  |  |  |  |  |  | 0.041 nM
6 | 5G1.1 (antibody, human IgG1, V domains shown, Humanized) VH: EVQLVQSGAEVKKPGASVKVSCKASGYTFTTYGVSWVRQAPGQGLEWIGEIYPGNYNTYYNEKFRGKATMTTDTSTSTAYMELRSLRSDDTAVYYCSRWRTSYFSDYGYFDYWGQGTTVTVSS VL: DVVMTQSPLSLPVTLGQPASISCRSSQSLVHSHGNTYLHWYQQRPGQSPRLLIYTVSNRFSGVPDRFSGSGSGTDFTLKISRVEAEDVGVYYCSQSTHVPYTFGGGTKVEIKR | 0.0272 nM | 2.14e-05 s⁻¹ | 786000 M⁻¹ s⁻¹ | 0.029 nM | 0.0741 nM |  |  |  |  |  |  |  |  |  |  | 

Continued, values first:

Row | Kd (human IL-13 wild type [1]) | koff (human IL-13 wild type [1]) | kon (human IL-13 wild type [1]) | Potency (IC50), A-549 bioassay (human IL-13 wild type [2]) | Potency (IC50), A-549 bioassay [3] | Average IC50, IL-13-induced TARC production by A-549 cells (human IL-13 wild type [4]) | Average IC50, IL-13-induced TARC production by A-549 cells [5] | Average IC50, IL-13-induced TARC production by A-549 cells (cynomolgus IL-13) | Kd (human IL-13 wild type [6]) | koff (human IL-13 wild type [6]) | kon (human IL-13 wild type [6]) | Kd [7] | koff [7] | kon [7] | binding result (mouse IL-13) | Average IC50, IL-13-induced TARC production by A-549 cells (human IL-13 wild type [8]) | Binder
7 | 0.022 nM | 1.91e-05 s⁻¹ | 869000 M⁻¹ s⁻¹ | 0.114 nM | 0.0655 nM |  |  |  |  |  |  |  |  |  |  |  | 5G1.5 (antibody, human IgG1, V domains shown, Humanized; The heavy chain row is printed 'VN 5G1.5') VH: QVQLVQSGAEVKKPGASVKVSCKASGYTFTTYGVSWVRQAPGQGLEWIGEIYPGNYNTYYNEKFRGKATLTADKSTSTAYMELSSLRSEDTAVYYCSRWRTSYFSDYGYFDYWGQGTLVTVSS VL: DIVMTQSPLSLPVTPGQPASISCRSSQSLVHSHGNTYLHWYLQKPGQSPKLLIYTVSNRFSGVPDRFSGSGSGTDFTLKISRVEAEDVGVYYCSQSTHVPYTFGGGTKVEIK
8 |  |  |  |  |  | 0.284 nM | 0.54 nM | 6.11 nM | 0.356 nM | 6.5e-05 s⁻¹ | 182000 M⁻¹ s⁻¹ | 0.632 nM | 0.000155 s⁻¹ | 245000 M⁻¹ s⁻¹ | no binding (tested: 0.1 to 100 ng/ml) |  | 22D10 (antibody, V domains shown) VH: QVQLQQSGDDLVKPGASVKLSCKASGYTFTSYWINWIKQRPGQGLEWIGHIAPGSGETYDNEMFKDKAKLTVDTSSSTAYIHLSSLSSEDSAVYFCARGSFTFFYAMDYWGQGTSVTVSS VL: DVLMTQTPLSLPVSLGDQASISCRSSQNIVHSNGKTYLEWYLQRPGQSPKLLIYKVSNRFSGVPDRFSGSGSGTDFTLKISRVEAEDLGVYYCFQGSHVPYTFGGGTKLEIKR
9 |  |  |  |  |  | 0.705 nM | 0.29 nM | 0.291 nM | 0.296 nM | 0.000483 s⁻¹ | 1.63e+06 M⁻¹ s⁻¹ | 0.387 nM | 0.000584 s⁻¹ | 1.51e+06 M⁻¹ s⁻¹ | no binding (tested: 0.1 to 100 ng/ml) |  | 5D3 (antibody, V domains shown) VH: QVQLKESGPGLVAPSQSLSITCTVSGFSLTGYNINWVRQPPGKGLEWLGLIWGDGNTAFNSALKSRLSISKDNSKSQVFLKLNSLQTDDTARYYCARDGYYPYAIKYWGQGTSVTVSS VL: NIVLTQSPASLAVSLGQRATISCRASETVDSYGNSFMHWYQQKPGQPPKLLIYLASNLESGVPARFSGSGSRTDFTLTIDPVEADDAATYYCQQNNEDPRTFGGGTKLEIKR
10 | 0.105 nM | 8.81e-05 s⁻¹ | 835000 M⁻¹ s⁻¹ | 0.0295 nM | 0.0553 nM |  |  |  |  |  |  |  |  |  |  |  | 5G1.2 (antibody, human IgG1, V domains shown, Humanized) VH: EVQLVQSGAEVKKPGASVKVSCKASGYTFTTYGVSWVRQAPGQGLEWIGEIYPGNYNTYYNEKFRGKATLTADKSTSTAYMELSSLRSDDTAVYFCSRWRTSYFSDYGYFDYWGQGTTVTVSS VL: DVVMTQSPLSLPVTLGQPASISCRSSQSLVHSHGNTYLHWYQQRPGQSPRLLIYTVSNRFSGVPDRFSGSGSGTDFTLKISRVEAEDVGVYFCSQSTHVPYTFGGGTKVEIKR
11 |  |  |  |  |  |  |  |  |  |  |  |  |  |  |  | 0.123 nM | 9C11-Chim (antibody, human IgG1, V domains shown) VH: QVRLQQPGAELVRPGASVKLSCKASGYTFTSSWIHWVNQRPGQGLEWIGMIHPSDSETRLNQKFKDKATLTVDKSSSTAYMQLSSPTSEDSAVYYCASTATDFDYWGQGTTLTVSS VL: DVVLTQTPLSLPVNIGDQASISCRSTQTLLNSDGFTYLDWYLQKPGQSPQLLIYLVSNRFSGVPDRFSGSGSGTDFTLKISRVEAEDLGVYYCFQNNYLPLTFGAGTKLELKR
